Results reported in the supplement of paper PMC9112550, “Optimization of the antimicrobial peptide Bac7 by deep mutational scanning” (BMC Biology, 2022).

test system: Escherichia coli TOP10; experiment: shrunken log2 fold change of peptide-encoding DNA abundance (4.5 h post-induction vs induction); higher = less antimicrobial activity (less host growth inhibition); settings: time post-induction: 4.5 h; library: site-saturation at positions 5, 18, 19, 20
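Note: peptides expressed intracellularly from a pBAD plasmid library in pooled LB shake-flask culture, induced with 0.3% L-arabinose, DNA abundance read by NGS, three biological replicates, DESeq2 with apeglm shrinkage.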

Point of comparison: RRIRFRPPRLPRPRPRPFPWPRP, “shrunken log2 fold change” value -0.211. Against it:
- RRIRFRPPRLPRPRPRPAYHPRP — higher, -0.00712
- RRIRWRPPRLPRPRPRPAYMPRP — within 0.2 log units, -0.205
- RRIRSRPPRLPRPRPRPNVVPRP — within 0.2 log units, -0.0558
- RRIRWRPPRLPRPRPRPDNNPRP — within 0.2 log units, -0.0431
- RRIRNRPPRLPRPRPRPLYPPRP — lower, -0.586
- RRIRFRPPRLPRPRPRPFYFPRP — lower, -0.681
- RRIRIRPPRLPRPRPRPIQRPRP — within 0.2 log units, -0.265
- RRIRTRPPRLPRPRPRPGFRPRP — within 0.2 log units, -0.0537
- RRIRCRPPRLPRPRPRPVCAPRP — higher, 0.264
- RRIRRRPPRLPRPRPRPFMNPRP — higher, 0.0829
- RRIRRRPPRLPRPRPRPARMPRP — higher, 0.173
- RRIRKRPPRLPRPRPRPPLAPRP — higher, 1.06
- RRIRQRPPRLPRPRPRPNCLPRP — within 0.2 log units, -0.0533
- RRIRMRPPRLPRPRPRPLYFPRP — within 0.2 log units, -0.302
- RRIRPRPPRLPRPRPRPVKWPRP — higher, 0.00231
- RRIRPRPPRLPRPRPRPFAAPRP — higher, 0.227
- RRIRRRPPRLPRPRPRPPLCPRP — higher, 0.971
- RRIRDRPPRLPRPRPRPWHCPRP — higher, 0.102
- RRIRWRPPRLPRPRPRPCMEPRP — within 0.2 log units, -0.0563
- RRIRCRPPRLPRPRPRPDHQPRP — within 0.2 log units, -0.172
- RRIRYRPPRLPRPRPRPYPEPRP — within 0.2 log units, -0.173
- RRIRMRPPRLPRPRPRPWMLPRP — higher, 0.367
- RRIRARPPRLPRPRPRPVPEPRP — higher, 0.499
- RRIRSRPPRLPRPRPRPYTRPRP — within 0.2 log units, -0.304
- RRIRVRPPRLPRPRPRPEALPRP — higher, -0.00459
- RRIRGRPPRLPRPRPRPNNMPRP — within 0.2 log units, -0.317
- RRIRCRPPRLPRPRPRPYSPPRP — lower, -1.13
- RRIRCRPPRLPRPRPRPSMYPRP — lower, -0.418
- RRIRMRPPRLPRPRPRPDRNPRP — higher, 1.4
- RRIRDRPPRLPRPRPRPLPKPRP — higher, 0.368
- RRIRARPPRLPRPRPRPMKQPRP — higher, 0.0535
- RRIRQRPPRLPRPRPRPLTQPRP — higher, 0.0547
- RRIRKRPPRLPRPRPRPNGEPRP — higher, 0.189
- RRIRWRPPRLPRPRPRPVSQPRP — higher, 0.139
- RRIRWRPPRLPRPRPRPGKAPRP — higher, 0.0616
- RRIRYRPPRLPRPRPRPVCCPRP — lower, -0.644
- RRIRMRPPRLPRPRPRPSHHPRP — within 0.2 log units, -0.171
- RRIRERPPRLPRPRPRPAQKPRP — higher, 0.192
- RRIRGRPPRLPRPRPRPAMIPRP — higher, 0.2
- RRIRVRPPRLPRPRPRPADRPRP — higher, 0.194
- RRIRSRPPRLPRPRPRPSFFPRP — the same, -0.211
- RRIRGRPPRLPRPRPRPIVKPRP — higher, 0.328
- RRIRARPPRLPRPRPRPVKPPRP — higher, 0.236
- RRIRDRPPRLPRPRPRPIKEPRP — within 0.2 log units, -0.015
- RRIRMRPPRLPRPRPRPFDIPRP — within 0.2 log units, -0.126
- RRIRIRPPRLPRPRPRPPTWPRP — within 0.2 log units, -0.101
- RRIRSRPPRLPRPRPRPSPDPRP — within 0.2 log units, -0.218
- RRIRNRPPRLPRPRPRPTCPPRP — higher, 0.059
- RRIRGRPPRLPRPRPRPHQHPRP — higher, 0.112
- RRIRDRPPRLPRPRPRPGLEPRP — higher, 1
- RRIRWRPPRLPRPRPRPPTRPRP — higher, 0.578
- RRIRARPPRLPRPRPRPIHFPRP — within 0.2 log units, -0.169
- RRIRRRPPRLPRPRPRPHYRPRP — within 0.2 log units, -0.306
- RRIRDRPPRLPRPRPRPICHPRP — higher, 0.139
- RRIRARPPRLPRPRPRPLCNPRP — within 0.2 log units, -0.0439
- RRIRRRPPRLPRPRPRPWRVPRP — higher, 0.277
- RRIRGRPPRLPRPRPRPLIAPRP — higher, 1.27
- RRIRQRPPRLPRPRPRPDYNPRP — within 0.2 log units, -0.161
- RRIRVRPPRLPRPRPRPDQHPRP — within 0.2 log units, -0.0679
- RRIRVRPPRLPRPRPRPGIKPRP — higher, 0.174
- RRIRVRPPRLPRPRPRPHSHPRP — within 0.2 log units, -0.348
- RRIRYRPPRLPRPRPRPSKEPRP — within 0.2 log units, -0.0167
- RRIRHRPPRLPRPRPRPTHTPRP — higher, -0.00887
- RRIRERPPRLPRPRPRPKYWPRP — within 0.2 log units, -0.202
- RRIRSRPPRLPRPRPRPKVCPRP — higher, 0.00182
- RRIRLRPPRLPRPRPRPVDKPRP — within 0.2 log units, -0.138
- RRIRCRPPRLPRPRPRPTEYPRP — lower, -0.564
- RRIRCRPPRLPRPRPRPLHEPRP — within 0.2 log units, -0.23
- RRIRLRPPRLPRPRPRPAESPRP — higher, 0.197
- RRIRTRPPRLPRPRPRPGPIPRP — higher, 0.316
- RRIRGRPPRLPRPRPRPAREPRP — higher, 0.38
- RRIRGRPPRLPRPRPRPEAIPRP — higher, 1.82
- RRIRDRPPRLPRPRPRPQDRPRP — within 0.2 log units, -0.0933
- RRIRFRPPRLPRPRPRPQYHPRP — lower, -1.15
- RRIRCRPPRLPRPRPRPLFYPRP — lower, -0.764
- RRIRARPPRLPRPRPRPELKPRP — higher, 0.488
- RRIRWRPPRLPRPRPRPRWMPRP — higher, 0.1
- RRIRNRPPRLPRPRPRPHPWPRP — higher, 0.0589
- RRIRMRPPRLPRPRPRPYGGPRP — lower, -1.22
- RRIRQRPPRLPRPRPRPRFMPRP — higher, 0.137
- RRIRVRPPRLPRPRPRPQIKPRP — lower, -0.455
- RRIRTRPPRLPRPRPRPNRQPRP — higher, 0.0749
- RRIRSRPPRLPRPRPRPIDGPRP — higher, 0.0145
- RRIRFRPPRLPRPRPRPKKIPRP — within 0.2 log units, -0.028
- RRIRHRPPRLPRPRPRPWWCPRP — within 0.2 log units, -0.034
- RRIRNRPPRLPRPRPRPQWHPRP — lower, -0.481
- RRIRLRPPRLPRPRPRPCIKPRP — lower, -0.752
- RRIRRRPPRLPRPRPRPTTGPRP — higher, -0.00353
- RRIRQRPPRLPRPRPRPNQKPRP — within 0.2 log units, -0.0966
- RRIRIRPPRLPRPRPRPDMHPRP — within 0.2 log units, -0.0689
- RRIRHRPPRLPRPRPRPHQTPRP — within 0.2 log units, -0.0667
- RRIRKRPPRLPRPRPRPIWVPRP — higher, 0.00396
- RRIRVRPPRLPRPRPRPPESPRP — higher, 0.201
- RRIRGRPPRLPRPRPRPRAQPRP — higher, 0.778
- RRIRIRPPRLPRPRPRPFDRPRP — higher, 4.11
- RRIRPRPPRLPRPRPRPSEAPRP — within 0.2 log units, -0.0726
- RRIRERPPRLPRPRPRPNAYPRP — within 0.2 log units, -0.0628
- RRIRMRPPRLPRPRPRPMKDPRP — higher, 0.251
- RRIRCRPPRLPRPRPRPNNIPRP — lower, -0.843
- RRIRWRPPRLPRPRPRPTSSPRP — higher, 0.23
- RRIRQRPPRLPRPRPRPTNKPRP — lower, -0.579
- RRIRERPPRLPRPRPRPKRFPRP — within 0.2 log units, -0.0239
- RRIRARPPRLPRPRPRPIGDPRP — higher, 0.24
- RRIRGRPPRLPRPRPRPCNRPRP — higher, 0.212
- RRIRVRPPRLPRPRPRPSDSPRP — within 0.2 log units, -0.4
- RRIRFRPPRLPRPRPRPCPCPRP — within 0.2 log units, -0.21
- RRIRSRPPRLPRPRPRPTEPPRP — higher, 0.161
- RRIRYRPPRLPRPRPRPDAMPRP — within 0.2 log units, -0.0326
- RRIRERPPRLPRPRPRPEIMPRP — higher, -0.00047
- RRIRLRPPRLPRPRPRPEWNPRP — within 0.2 log units, -0.083
- RRIRARPPRLPRPRPRPWNLPRP — within 0.2 log units, -0.0204
- RRIRVRPPRLPRPRPRPDSQPRP — within 0.2 log units, -0.116
- RRIRWRPPRLPRPRPRPMVYPRP — higher, 0.0222
- RRIRFRPPRLPRPRPRPHWNPRP — lower, -0.653
- RRIRNRPPRLPRPRPRPRLLPRP — higher, 0.0984
- RRIRKRPPRLPRPRPRPCEHPRP — higher, 0.015
- RRIRSRPPRLPRPRPRPFWPPRP — higher, 0.315
- RRIRSRPPRLPRPRPRPMMHPRP — within 0.2 log units, -0.121
- RRIRERPPRLPRPRPRPKMVPRP — within 0.2 log units, -0.22
- RRIRCRPPRLPRPRPRPSQNPRP — within 0.2 log units, -0.141
- RRIRPRPPRLPRPRPRPPKWPRP — higher, 0.469
- RRIRLRPPRLPRPRPRPIGYPRP — within 0.2 log units, -0.253
- RRIRYRPPRLPRPRPRPAWVPRP — higher, 0.0366
- RRIRNRPPRLPRPRPRPYHHPRP — within 0.2 log units, -0.207
- RRIRNRPPRLPRPRPRPVADPRP — higher, 0.217
- RRIRARPPRLPRPRPRPWFSPRP — higher, -0.00399
- RRIRMRPPRLPRPRPRPVMMPRP — higher, 0.147
- RRIRERPPRLPRPRPRPHMCPRP — within 0.2 log units, -0.0653
- RRIRERPPRLPRPRPRPDAAPRP — higher, 0.635
- RRIRMRPPRLPRPRPRPIMFPRP — within 0.2 log units, -0.103
- RRIRPRPPRLPRPRPRPAAWPRP — higher, 0.377
- RRIRTRPPRLPRPRPRPRASPRP — higher, 0.367
- RRIRHRPPRLPRPRPRPIQSPRP — within 0.2 log units, -0.0918
- RRIRMRPPRLPRPRPRPRINPRP — higher, 0.19
- RRIRVRPPRLPRPRPRPVEDPRP — within 0.2 log units, -0.378
- RRIRNRPPRLPRPRPRPREDPRP — higher, 0.102
- RRIRSRPPRLPRPRPRPYSMPRP — lower, -0.721
- RRIRWRPPRLPRPRPRPEGQPRP — higher, 4.45
- RRIRIRPPRLPRPRPRPTGPPRP — within 0.2 log units, -0.0249
- RRIRLRPPRLPRPRPRPKQFPRP — higher, 0.0426
- RRIRVRPPRLPRPRPRPGHMPRP — higher, 0.0482
- RRIRLRPPRLPRPRPRPTKKPRP — higher, 0.12
- RRIRYRPPRLPRPRPRPSRLPRP — within 0.2 log units, -0.114
- RRIRGRPPRLPRPRPRPSPKPRP — higher, 0.619
- RRIRARPPRLPRPRPRPKNGPRP — higher, 0.246
- RRIRRRPPRLPRPRPRPNDPPRP — higher, 0.0958
- RRIRPRPPRLPRPRPRPPDKPRP — higher, 0.266
- RRIRPRPPRLPRPRPRPTRAPRP — higher, 0.707
- RRIRLRPPRLPRPRPRPDPCPRP — within 0.2 log units, -0.0403
